Paper PMC9091064

Columns and labels:
[1] = molecular target: SARS-CoV-2 3CLpro Q299N (SARS-CoV-2); assay: SEC
[2] = molecular target: SARS-CoV-2 3CLpro S10T (SARS-CoV-2); assay: SEC
[3] = molecular target: SARS-CoV-2 3CLpro E290Q (SARS-CoV-2); assay: SEC
[4] = molecular target: SARS-CoV-2 3CLpro E14D (SARS-CoV-2); assay: SEC
[5] = molecular target: SARS-CoV-2 3CLpro E290A (SARS-CoV-2); assay: SEC
[6] = molecular target: SARS-CoV-2 3CLpro S1A (SARS-CoV-2); assay: SEC
[7] = molecular target: SARS-CoV-2 3CLpro E290Y (SARS-CoV-2); assay: SEC
[8] = molecular target: SARS-CoV-2 3CLpro K12A (SARS-CoV-2)
[9] = molecular target: SARS-CoV-2 3CLpro K12A (SARS-CoV-2); assay: SEC
[10] = molecular target: SARS-CoV-2 3CLpro E14A (SARS-CoV-2); assay: SEC
[11] = molecular target: SARS-CoV-2 3CLpro S139A (SARS-CoV-2); assay: SEC
[12] = molecular target: SARS-CoV-2 3CLpro R4A (SARS-CoV-2); assay: SEC
[13] = molecular target: SARS-CoV-2 3CLpro Q299E (SARS-CoV-2); assay: SEC
[14] = molecular target: SARS-CoV-2 3CLpro S10A (SARS-CoV-2); assay: SEC
[15] = molecular target: SARS-CoV-2 3CLpro E14S (SARS-CoV-2); assay: SEC
[16] = molecular target: SARS-CoV-2 3CLpro E290D (SARS-CoV-2); assay: SEC
[17] = molecular target: SARS-CoV-2 3CLpro S10C (SARS-CoV-2); assay: SEC
[18] = molecular target: SARS-CoV-2 3CLpro R4Q (SARS-CoV-2); assay: SEC
[19] = molecular target: SARS-CoV-2 3CLpro Q299A (SARS-CoV-2); assay: SEC
[20] = molecular target: SARS-CoV-2 3CLpro E14Q (SARS-CoV-2); assay: SEC

Work on SARS-CoV-2 3CLpro Q299N (enzyme) yielded a stoichiometry N [1] of 2.

Work on SARS-CoV-2 3CLpro S10T (enzyme) yielded a stoichiometry N [2] of 2.

With SARS-CoV-2 3CLpro E290Q (enzyme) the stoichiometry N [3] was 2.

In the case of SARS-CoV-2 3CLpro E14D (enzyme), the stoichiometry N [4] is reported as 2.

Substance SARS-CoV-2 3CLpro E290A (enzyme) has a stoichiometry N [5] of 2.

For SARS-CoV-2 3CLpro S1A (enzyme), the stoichiometry N [6] was 2.

Work on SARS-CoV-2 3CLpro E290Y (enzyme) yielded a stoichiometry N [7] of 2.

SARS-CoV-2 3CLpro K12A (enzyme) was tested, and the relative proteolytic activity on the FRET peptide substrate, percent of WT [8] was 60%, the share of the monomer form [9] was 60% and the stoichiometry N [9] was 2.

With SARS-CoV-2 3CLpro E14A (enzyme) the stoichiometry N [10] was 2.

With SARS-CoV-2 3CLpro S139A (enzyme) the stoichiometry N [11] was 2.

SARS-CoV-2 3CLpro R4A (enzyme) gave a stoichiometry N [12] of 2.

With SARS-CoV-2 3CLpro Q299E (enzyme) the stoichiometry N [13] was 2.

SARS-CoV-2 3CLpro S10A (enzyme) gave a stoichiometry N [14] of 2.

In the case of SARS-CoV-2 3CLpro E14S (enzyme), the stoichiometry N [15] is reported as 2.

SARS-CoV-2 3CLpro E290D (enzyme) showed a stoichiometry N [16] of 2.

SARS-CoV-2 3CLpro S10C (enzyme) was tested, and the stoichiometry N [17] was 2.

SARS-CoV-2 3CLpro R4Q (enzyme) showed a stoichiometry N [18] of 2.

SARS-CoV-2 3CLpro Q299A (enzyme) gave a stoichiometry N [19] of 2.

SARS-CoV-2 3CLpro E14Q (enzyme) was tested, and the stoichiometry N [20] was 2.
